US20200384118A1, “IMMUNOTOXIN CONJUGATES FOR USE IN THERAPY” (FRIEDRICH-ALEXANDER-UNIVERSITAT ERLANGEN-NURNBERG, priority 2017, published 2020)

What was measured:
many cell lines [1] = test: molar activity in vitro against many cell lines (FIG. 3B); assay type: cell-based; conditions: on average, PV from published activity
Protocol: FIG. 3: Activity of Duotoxins in vitro.
LMIT-2-DM1 was tested against various cell lines (FIG. 3A). […] Cells like DOHH-2 that are resistant to immunotoxins were sensitive to the LMIT-2-DM1. We have not found a cell line which is resistant to both, the PE and the DM1 in vitro. […] On average 3.6 DM1 molecules per LMIT-3 molecule were coupled. […] The activity of PV varies substantially over a 3-log concentration range. […] The activity is tested by plating the above described cell lines at 20,000 cells per well in a 96-well plate. The immunotoxin or duotoxin is added at indicated concentrations in a three-fold serial dilution, the cells incubated in a humidified incubator for 72 hours. The cells are then collected by centrifugation, stained with 7-AAD and Annexin V and cell death determined by flow cytometry. The concentration at which 50% of the cells are killed (IC50) reflects the activity of a drug against a cell and is determined from the flow cytometry data by non-linear regression analysis.

many cell lines [2] = conditions: published activity of PV; cited from earlier work
[3] = cytotoxicity of immunotoxins and blocking of LMIT-2 by LMIT-3 (FIG. 2B); assay type: cell-based

B1: PV: CD22-targeting IgG-based ADC, antibody conjugated with MMAE (conjugate, chains of the INN, looked up)
VH: EVQLVESGGGLVQPGGSLRLSCAASGYEFSRSWMNWVRQAPGKGLEWVGRIYPGDGDTNYSGKFKGRFTISADTSKNTAYLQMNSLRAEDTAVYYCARDGSSWDWYFDVWGQGTLVTVSS
VL: DIQMTQSPSSLSASVGDRVTITCRSSQSIVHSVGNTFLEWYQQKPGKAPKLLIYKVSNRFSGVPSRFSGSGSGTDFTLTISSLQPEDFATYYCFQGSQFPYTFGQGTKVEIK
modifications: vedotin (MMAE) payload
activity relative to LMIT-2 (less active) (many cell lines [1]): 3 logs | variation of activity over concentration range (many cell lines [2]): 3 log

B2: Moxe: reference immunotoxin compared with LMIT-2 in FIG. 2B; not further defined in the text (antibody, chains of the INN, looked up, V domains shown)
VH: EVQLVESGGGLVKPGGSLKLSCAASGFAFSIYDMSWVRQTPEKCLEWVAYISSGGGTTYYPDTVKGRFTISRDNAKNTLYLQMSSLKSEDTAMYYCARHSGYGTHWGVLFAYWGQGTLVTVSA
VL: DIQMTQTTSSLSASLGDRVTISCRASQDISNYLNWYQQKPDGTVKLLIYYTSILHSGVPSRFSGSGSGTDYSLTISNLEQEDFATYFCQQGNTLPWTFGCGTKLEI
modifications: pasudotox (PE38 toxin fusion)
notes: not further defined in the text
activity of LMIT-2 compared with Moxe [3]: comparable activity
